Stoichiometry N data for four substances are collected here from PMC11005422.

For test [1], the target named is shClpP1 alone (sample of Fig. S1A) (Streptomyces hawaiiensis NRRL 15010). In words: not stated; Fig. S1A (not shown): purified proteins in solution; a shClpP1 sample was also put on cryo-EM grids.
The target in test [2] is ClpC1 (NTD residues 1-156 removed, E284A/E622A/F440A) (Streptomyces hawaiiensis NRRL 15010). Description: cryo-EM structure; ClpC1 added to the pre-formed shClpP1P2 complex with fluorescein-labeled casein and ATP; conformations A (2.94 Å) and B (3.0 Å), C1.
Test [3] addresses shClpP2 (first 49 residues removed, S131A) (Streptomyces hawaiiensis NRRL 15010). Description: cryo-EM structure; apo shClpP1P2, C7 symmetry imposed, 2.34 Å (free shClpP1P2 particles of the ClpC1 sample; a second reconstruction at 2.88 Å from the shClpP1P2 sample); SEC buffer 20 mM HEPES, 150 mM KCl, 5% glycerol, pH 7.5.
The target in test [4] is shClpP1 (first 29 residues removed, S113A) (Streptomyces hawaiiensis NRRL 15010). The test is described as above.

Consider “shClpP1 alone (sample of Fig. S1A) (enzyme)”, for which the stoichiometry N (commonly a count of units in the complex or per binding partner) in test [1] was 7.

On to “ClpC1 (NTD residues 1-156 removed, E284A/E622A/F440A) (enzyme)”, for which the stoichiometry N in test [2] came to 6.

Substance “shClpP2 (first 49 residues removed, S131A) (enzyme)” showed a stoichiometry N in test [3] of 7.

In the case of “shClpP1 (first 29 residues removed, S113A) (enzyme)”, the stoichiometry N in test [4] came out at 7.
